From publication PMC6629373, “Cryo-EM structure of the rhodopsin-Gαi-βγ complex reveals binding of the rhodopsin C-terminal tail to the gβ subunit” (eLife, 2019)

Target: T1, human Gαi subunit (Gαi1) with N-terminal deca-histidine tag (human, UniProt P63096 1-354)
T1 construct: Gαi1 subunit, human; TEV protease-cleavable tag; source: E. coli BL21 (DE3), purified; not shown: His10, N-terminal, kept
Experiment: cryo-EM structure; rhodopsin-Gi-Fab16 complex; rhodopsin on 1D4 resin mixed with 10xHis-tagged Gi, light-activated, with apyrase, in LMNG; Ni-NTA; Fab16 added in molar excess (1:1.4); SEC in 20 mM HEPES pH 7.5, 150 mM NaCl; Titan Krios, K2; nominal resolution 4.38 Å
Details: both partners purified

- binding result: binds
B1: bovine rhodopsin N2C/M257Y/D282C (stabilized, constitutively active mutant) (receptor, UniProt P02699 1-348, looked up)
chain: MCGTEGPNFYVPFSNKTGVVRSPFEAPQYYLAEPWQFSMLAAYMFLLIMLGFPINFLTLYVTVQHKKLRTPLNYILLNLAVADLFMVFGGFTTTLYTSLHGYFVFGPTGCNLEGFFATLGGEIALWSLVVLAIERYVVVCKPMSNFRFGENHAIMGVAFTWVMALACAAPPLVGWSRYIPEGMQCSCGIDYYTPHEETNNESFVIYMFVVHFIIPLIVIFFCYGQLVFTVKEAAAQQQESATTQKAEKEVTRMVIIYVIAFLICWLPYAGVAFYIFTHQGSCFGPIFMTIPAFFAKTSAVYNPVIYIMMNKQFRNCMVTTLCCGKNPLGDDEASTTVSKTETSQVAPA
modifications: palmitoylation of Cys residues at positions 322 and 323; reconstituted with 9-cis or 11-cis retinal and light-activated
notes: rhodopsin, bovine, mutant N2C/M257Y/D282C; Residues 324-335 of the C-tail were modelled in the map; also called the receptor
